Assay results from US20200317768A1 (published 2020).

T1: cynomolgus monkey FcγRIIa1 extracellular domain, His-tagged (cynomolgus monkey)
T1 construct: also called cyno FcγRIIa1; cynoFcgRIIa1; not shown: C-terminal His-tag
T1 chain: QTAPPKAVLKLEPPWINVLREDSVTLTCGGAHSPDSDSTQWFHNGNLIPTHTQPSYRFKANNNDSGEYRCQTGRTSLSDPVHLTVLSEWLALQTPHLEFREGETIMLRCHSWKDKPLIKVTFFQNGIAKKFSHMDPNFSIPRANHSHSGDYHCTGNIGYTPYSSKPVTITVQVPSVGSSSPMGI

T2: cynomolgus monkey FcγRIIa3 extracellular domain, His-tagged (cynomolgus monkey)
T2 construct: also called cyno FcγRIIa3; cynoFcgRIIa3; not shown: C-terminal His-tag
T2 chain: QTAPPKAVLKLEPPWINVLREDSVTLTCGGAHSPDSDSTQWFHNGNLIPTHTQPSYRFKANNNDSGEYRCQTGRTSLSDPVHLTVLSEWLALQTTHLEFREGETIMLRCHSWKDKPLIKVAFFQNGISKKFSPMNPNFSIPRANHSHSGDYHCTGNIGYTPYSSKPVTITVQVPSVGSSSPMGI

T3: human FcγRIIaH extracellular domain, His-tagged (human, UniProt P12318 34-217)
T3 construct: also called human FcγRIIa (type H); FcgRIIaH; not shown: C-terminal His-tag
T3 sequence: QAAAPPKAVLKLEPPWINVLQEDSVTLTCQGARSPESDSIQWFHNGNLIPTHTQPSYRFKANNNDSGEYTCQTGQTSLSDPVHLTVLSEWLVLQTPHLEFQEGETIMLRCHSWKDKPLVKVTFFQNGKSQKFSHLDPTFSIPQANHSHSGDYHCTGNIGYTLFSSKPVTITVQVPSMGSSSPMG

T4: cynomolgus monkey FcγRIIa2 extracellular domain, His-tagged (cynomolgus monkey)
T4 construct: also called cyno FcγRIIa2; cynoFcgRIIa2; not shown: C-terminal His-tag
T4 chain: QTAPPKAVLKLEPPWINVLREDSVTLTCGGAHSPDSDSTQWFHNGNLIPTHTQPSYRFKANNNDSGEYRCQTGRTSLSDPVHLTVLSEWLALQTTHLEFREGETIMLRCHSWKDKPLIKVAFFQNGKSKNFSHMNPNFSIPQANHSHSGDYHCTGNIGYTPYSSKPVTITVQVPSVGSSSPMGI

T5: human FcγRIIaR extracellular domain, His-tagged (human, UniProt P12318 34-217)
T5 construct: also called human FcγRIIa (type R); FcgRIIaR; not shown: C-terminal His-tag
T5 chain: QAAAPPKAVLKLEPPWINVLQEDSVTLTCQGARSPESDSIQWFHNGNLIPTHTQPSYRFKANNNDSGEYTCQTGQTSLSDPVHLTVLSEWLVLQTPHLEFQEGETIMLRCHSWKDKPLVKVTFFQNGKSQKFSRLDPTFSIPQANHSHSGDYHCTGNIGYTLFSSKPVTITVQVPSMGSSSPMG

T6: cynomolgus monkey FcγRIIb extracellular domain, His-tagged (cynomolgus monkey)
T6 construct: also called cyno FcγRIIb; cynoFcγRIIb; not shown: C-terminal His-tag
T6 chain: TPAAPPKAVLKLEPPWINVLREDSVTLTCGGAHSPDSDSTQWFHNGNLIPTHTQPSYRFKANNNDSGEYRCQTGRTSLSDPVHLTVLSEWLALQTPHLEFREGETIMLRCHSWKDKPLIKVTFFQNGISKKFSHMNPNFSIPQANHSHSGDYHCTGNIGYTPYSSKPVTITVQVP

T7: human FcγRIIb extracellular domain, His-tagged (human, UniProt P31994 43-217)
T7 construct: also called FcgRIIb (human); not shown: C-terminal His-tag
T7 sequence: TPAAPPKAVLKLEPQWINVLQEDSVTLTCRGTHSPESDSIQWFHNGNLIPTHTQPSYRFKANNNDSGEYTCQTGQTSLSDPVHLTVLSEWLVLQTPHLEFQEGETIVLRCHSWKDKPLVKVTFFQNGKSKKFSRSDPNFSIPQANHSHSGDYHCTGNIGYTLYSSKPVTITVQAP


Columns and labels:
Test in all cases: SPR (BIACORE); KD of SG1 divided by KD of variant;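 also: relative to parent M103205H795-SG1 carrying the SG1 human heavy chain constant region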
[1] = target: T8, human FcγRIIIaV extracellular domain, His-tagged (human, UniProt P08637 17-208)
T8 construct: also called FcgRIIIaV; not shown: C-terminal His-tag
Procedure: (§1) The kinetic analysis of interactions between these antibodies and FcγR was carried out using BIACORE® T200 or BIACORE® 4000 (GE Healthcare). HBS-EP+ (GE Healthcare) was used as the running buffer, and the measurement temperature was set to 25° C. A chip produced by immobilizing Protein A. Protein A/G or mouse anti-human IgG kappa light chain (BD Biosciences) onto a Series S Sensor Chip CM4 or CM5 (GE Healthcare) by the amine-coupling method was used. […] After the measurement, the antibody captured on the chip was washed off by allowing reaction with 10 mM glycine-HCl, pH1.5 and 25 mM NaOH so that the chip was regenerated and used repeatedly. The sensorgrams obtained as measurement results were analyzed by the 1:1 Langmuir binding model using the BIACORE® Evaluation Software to calculate the binding rate constant ka (L/mol/s) and dissociation rate constant kd (l/s), and the dissociation constant KD (mol/L) was calculated from these values. […] Regarding such interactions, KD values were calculated using the following 1:1 binding model described in BIACORE® T100 Software Handbook BR1006-48 Edition AE.

[2] = target: T1, cynomolgus monkey FcγRIIa1 …
Procedure: as §1

[3] = target: T2, cynomolgus monkey FcγRIIa3 …
Procedure: as §1

[4] = target: T3, human FcγRIIaH extracellular domain, …
Procedure: as §1

[5] = target: T4, cynomolgus monkey FcγRIIa2 …
Procedure: as §1

[6] = target: T5, human FcγRIIaR extracellular domain, …
Procedure: as §1

[7] = target: T6, cynomolgus monkey FcγRIIb extracellular …
Procedure: as §1

[8] = target: T7, human FcγRIIb extracellular domain, …
Procedure: as §1

T8 sequence (P08637 17-208 F176V): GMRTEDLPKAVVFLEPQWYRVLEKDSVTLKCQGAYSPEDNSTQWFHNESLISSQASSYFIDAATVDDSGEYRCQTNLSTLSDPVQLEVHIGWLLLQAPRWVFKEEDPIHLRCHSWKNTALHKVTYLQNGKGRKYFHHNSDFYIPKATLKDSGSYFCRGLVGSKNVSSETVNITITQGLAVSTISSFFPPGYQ

Binder	KD fold (SG1 = 1) [1]	KD fold (SG1 = 1) [2]	KD fold (SG1 = 1) [3]	KD fold (SG1 = 1) [4]	KD fold (SG1 = 1) [5]	KD fold (SG1 = 1) [6]	KD fold (SG1 = 1) [7]	KD fold (SG1 = 1) [8]
M103205H795-MY446/M103202L889-SK1 (antibody, human IgG1, kappa, copies: 2 + 2) heavy: QVTLKESGPVLVKPTETLTLTCTVSGIDLSHDDISWVRQAPGKGLEWVGIISYAGSTYYASWAKGRLTISKDTSKNQVVLTMTNMDPVDTATYYCARGVPAYSHGGDLWGQGTLVTVSSASTKGPSVFPLAPSSKSTSGGTAALGCLVKDYFPEPVTVSWNSGALTSGVHTFPAVLQSSGLYSLSSVVTVPSSSLGTQTYICNVNHKPSNTKVDKKVEPKSCDKTHTCPPCPAHELLTGPSVFLFPPKPKDTLMISRTPEVTCVVVDVSDEDPEVKFNWYVDGVEVHNAKTKPREEQYNSTYRVVSVLTVLHQDWLNGKEYKCKVSNKALPKPIEKTISKAKGQPREPQVYTLPPSREEMTKNQVSLTCLVKGFYPSDIAVEWESNGQPENNYKTTPPVLDSDGSFFLYSKLTVDKSRWQQGNVFSCSVMHEALHNHYTQKSLSLSP light: DIVMTQSPATLSLSPGERATLSCTSSQSVYHANWLSWFQQKPGQPPKLLIYWASTLAYGVPSRFSGSGSGTDFTLTISSLQPEDAATYYCAGGYGGGRYAFGQGTKVEIKRTVAAPSVFIFPPSDEQLKSGTASVVCLLNNFYPREAKVQWKVDNALQSGNSQESVTEQDSKDSTYSLSSTLTLSKADYEKHKVYACEVTHQGLSSPVTKSFNRGEC	0.1 fold	1.3 fold	3.6 fold	2.7 fold	2.3 fold	2.3 fold	2.6 fold	1.9 fold
M103205H795-MY447/M103202L889-SK1 (antibody, human IgG1, kappa, copies: 2 + 2) heavy: QVTLKESGPVLVKPTETLTLTCTVSGIDLSHDDISWVRQAPGKGLEWVGIISYAGSTYYASWAKGRLTISKDTSKNQVVLTMTNMDPVDTATYYCARGVPAYSHGGDLWGQGTLVTVSSASTKGPSVFPLAPSSKSTSGGTAALGCLVKDYFPEPVTVSWNSGALTSGVHTFPAVLQSSGLYSLSSVVTVPSSSLGTQTYICNVNHKPSNTKVDKKVEPKSCDKTHTCPPCPAIELLTGPSVFLFPPKPKDTLMISRTPEVTCVVVDVSDEDPEVKFNWYVDGVEVHNAKTKPREEQYNSTYRVVSVLTVLHQDWLNGKEYKCKVSNKALPKPIEKTISKAKGQPREPQVYTLPPSREEMTKNQVSLTCLVKGFYPSDIAVEWESNGQPENNYKTTPPVLDSDGSFFLYSKLTVDKSRWQQGNVFSCSVMHEALHNHYTQKSLSLSP light: DIVMTQSPATLSLSPGERATLSCTSSQSVYHANWLSWFQQKPGQPPKLLIYWASTLAYGVPSRFSGSGSGTDFTLTISSLQPEDAATYYCAGGYGGGRYAFGQGTKVEIKRTVAAPSVFIFPPSDEQLKSGTASVVCLLNNFYPREAKVQWKVDNALQSGNSQESVTEQDSKDSTYSLSSTLTLSKADYEKHKVYACEVTHQGLSSPVTKSFNRGEC	0.2 fold	3.2 fold	11.3 fold	7.1 fold	5.3 fold	11.2 fold	7.8 fold	10.5 fold
M103205H795-MY459/M103202L889-SK1 (antibody, human IgG1, kappa, copies: 2 + 2) heavy: QVTLKESGPVLVKPTETLTLTCTVSGIDLSHDDISWVRQAPGKGLEWVGIISYAGSTYYASWAKGRLTISKDTSKNQVVLTMTNMDPVDTATYYCARGVPAYSHGGDLWGQGTLVTVSSASTKGPSVFPLAPSSKSTSGGTAALGCLVKDYFPEPVTVSWNSGALTSGVHTFPAVLQSSGLYSLSSVVTVPSSSLGTQTYICNVNHKPSNTKVDKKVEPKSCDKTHTCPPCPDPELLTGPSVFLFPPKPKDTLMISRTPEVTCVVVDVSDEDPEVKFNWYVDGVEVHNAKTKPREEQYNSTYRVVSVLTVLHQDWLNGKEYKCKVSNKALPKPIEKTISKAKGQPREPQVYTLPPSREEMTKNQVSLTCLVKGFYPSDIAVEWESNGQPENNYKTTPPVLDSDGSFFLYSKLTVDKSRWQQGNVFSCSVMHEALHNHYTQKSLSLSP light: DIVMTQSPATLSLSPGERATLSCTSSQSVYHANWLSWFQQKPGQPPKLLIYWASTLAYGVPSRFSGSGSGTDFTLTISSLQPEDAATYYCAGGYGGGRYAFGQGTKVEIKRTVAAPSVFIFPPSDEQLKSGTASVVCLLNNFYPREAKVQWKVDNALQSGNSQESVTEQDSKDSTYSLSSTLTLSKADYEKHKVYACEVTHQGLSSPVTKSFNRGEC	0.1 fold	0.6 fold	2.3 fold	1.8 fold	1.1 fold	2 fold	1.6 fold	1.8 fold
M103205H795-MY448/M103202L889-SK1 (antibody, human IgG1, kappa, copies: 2 + 2) heavy: QVTLKESGPVLVKPTETLTLTCTVSGIDLSHDDISWVRQAPGKGLEWVGIISYAGSTYYASWAKGRLTISKDTSKNQVVLTMTNMDPVDTATYYCARGVPAYSHGGDLWGQGTLVTVSSASTKGPSVFPLAPSSKSTSGGTAALGCLVKDYFPEPVTVSWNSGALTSGVHTFPAVLQSSGLYSLSSVVTVPSSSLGTQTYICNVNHKPSNTKVDKKVEPKSCDKTHTCPPCPAKELLTGPSVFLFPPKPKDTLMISRTPEVTCVVVDVSDEDPEVKFNWYVDGVEVHNAKTKPREEQYNSTYRVVSVLTVLHQDWLNGKEYKCKVSNKALPKPIEKTISKAKGQPREPQVYTLPPSREEMTKNQVSLTCLVKGFYPSDIAVEWESNGQPENNYKTTPPVLDSDGSFFLYSKLTVDKSRWQQGNVFSCSVMHEALHNHYTQKSLSLSP light: DIVMTQSPATLSLSPGERATLSCTSSQSVYHANWLSWFQQKPGQPPKLLIYWASTLAYGVPSRFSGSGSGTDFTLTISSLQPEDAATYYCAGGYGGGRYAFGQGTKVEIKRTVAAPSVFIFPPSDEQLKSGTASVVCLLNNFYPREAKVQWKVDNALQSGNSQESVTEQDSKDSTYSLSSTLTLSKADYEKHKVYACEVTHQGLSSPVTKSFNRGEC	0.1 fold	0.3 fold	0.8 fold	0.7 fold	0.7 fold	0.5 fold	0.6 fold	0.5 fold
